Legend:
p3-40 = target: T1, p3-40; assay: sandwich ELISA, 1A10 capture, HRP-2G2 detection
T1 construct: also called Aβ17-40; 17-40
T1 peptide: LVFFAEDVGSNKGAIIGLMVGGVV

p3-42 = target: T2, p3-42; assay: sandwich ELISA, 44A3 capture, HRP-2G2 detection
T2 construct: also called Aβ17-42; 17-42
T2 peptide: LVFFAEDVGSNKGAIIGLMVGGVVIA

binding result (p3-40): binds
binding result (p3-42): binds
B1: 2G2 antibody (antibody, V domains shown)
VH: QVQLQQPGSELVRPGASVKLSCEASGYTFTSYWIHWVKQRPGQGLEWIGNIYPGSGDTNYDERFKSKATLTVDTSSNTAYMQLISLTSDDSAVYYCTRGKNWGQGTTLTVSS
VL: DIQMNQSPSSLSASLGDTITITCHASQNINVWLSWYQQKPGNIPRLLIYKVSNLHTGVPSRFSGSGSGTGFTLTISSLQPEDIATYYCQQGQSYPLTFGGGTKLEIR
notes: Used unlabelled in the Western blot and conjugated to horseradish peroxidase (HRP) as detection antibody in the sandwich ELISAs; only the CDRs are; also called clone 2G2; 2G2 monoclonal antibody

Source: patent WO2014167826A1 (dated 2014)
